Source: patent publication US20230105457A1, “Immunogenic Compounds For Treatment Of Adrenal Cancer” (ENTEROME S.A., priority 2019, published 2023)
Ends that are not written are not given here.

Key:
[1] = target: HLA-A*0201 molecule expressed on human tumor cell line T2 (human); assay: T2 cell HLA-A2 stabilisation, FACS; peptide at 1 µM
[2] = target: HLA-A*0201 molecule expressed on human tumor cell line T2 (human); assay: T2 cell HLA-A2 stabilisation, FACS; peptide at 0.1 µM
[3] = target: HLA-A*0201 molecule expressed on human tumor cell line T2 (human); assay: T2 cell HLA-A2 stabilisation, FACS; peptide at 10 µM
[4] = target: HLA-A*0201 molecule expressed on human tumor cell line T2 (human); assay: T2 cell HLA-A2 stabilisation, FACS; 20% of signal of HIV pol 589-597 at 100 µM
[5] = system: T2 cell lines loaded with bacterial peptide; assay: Cytotoxic assay of expanded peptide-specific CD8+ T cells (Example 14); assay type: cell-based, human; conditions: T cell clones expanded in vitro; flow cytometry readout
Text: CD8+ T cells expanded per above were used to perform cytotoxic assays in presence of different ratios of target and effector cells to assess their cytotoxic capacity, using flow cytometry readout. Target cells were T2 cell lines loaded with bacterial peptide. Negative control was T2 cells unloaded and T2 cells loaded with irrelevant peptide.

[6] = target: T1, HLA-A*0201 molecule expressed on human tumor cell line T2 (human); assay: T2 cell HLA-A2 stabilisation, FACS
T1 construct: surface HLA-A2 read with anti-HLA-A2 antibody BB7.2-PE by FACS; also called HLA-A2

## reference peptide HIV pol 589-597
[1]
  mean relative fluorescence intensity (relative (HIV peptide = 100)): 22.1
[2]
  mean relative fluorescence intensity (relative (HIV peptide = 100)): 2.4
[3]
  mean relative fluorescence intensity (relative (HIV peptide = 100)): 84.7
[4]
  Concentration of peptide that induces 20% of HLA-A2 expression: 0.85 µM

## FLPFGFILPV [IL13RA2-L]
[5]
  Cytotoxic capacity of peptide-specific human T cell clones (in words): have the capacity to kill T2 cells loaded with the bacteria peptide

B1: IL13RA2-B2 (SEQ ID NO: 192, Example 3) (peptide)
peptide: YLYTFLIST
[6]
  binding result: binds
